Measurements taken from publication PMC2997466, “The unstructured C-terminal extension of UvrD interacts with UvrB, but is dispensable for nucleotide excision repair” (DNA Repair, 2009).

T1: λ cI-UvrB 35–252 (1a2) fusion protein (E. coli, UniProt P0A8F8 35-252)
T1 construct: UvrB, E. coli, residues 35-252 (domains 1a and 2); also called UvrB fragment containing domains 1a and 2; source: bacterial two-hybrid fusion, pRA03 derivative, in E. coli KS1; not shown: λ cI residues 1–236, N-terminal, kept
T1 sequence (looked up): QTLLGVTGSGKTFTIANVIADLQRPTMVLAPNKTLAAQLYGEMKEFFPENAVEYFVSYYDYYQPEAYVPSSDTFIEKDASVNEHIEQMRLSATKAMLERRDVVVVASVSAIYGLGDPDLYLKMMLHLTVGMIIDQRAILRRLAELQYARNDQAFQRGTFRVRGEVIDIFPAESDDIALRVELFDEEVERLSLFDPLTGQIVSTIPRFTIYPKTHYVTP

T2: λ cI-UvrB 251–547 (1b3) fusion protein (E. coli, UniProt P0A8F8 251-547)
T2 construct: UvrB, E. coli, residues 251-547 (domains 1b and 3); also called UvrB domains 1b and 3; source: bacterial two-hybrid fusion, pRA03 derivative, in E. coli KS1; not shown: λ cI residues 1–236, N-terminal, kept
T2 sequence (looked up): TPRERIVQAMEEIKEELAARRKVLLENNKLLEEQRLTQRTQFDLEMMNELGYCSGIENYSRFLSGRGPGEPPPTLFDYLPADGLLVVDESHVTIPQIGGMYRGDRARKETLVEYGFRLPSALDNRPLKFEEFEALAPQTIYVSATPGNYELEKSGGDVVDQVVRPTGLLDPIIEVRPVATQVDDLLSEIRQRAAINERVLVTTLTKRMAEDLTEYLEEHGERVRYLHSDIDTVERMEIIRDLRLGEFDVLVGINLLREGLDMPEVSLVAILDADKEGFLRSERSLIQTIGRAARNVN

T3: λ cI-UvrB 527–673 (4) fusion protein (E. coli, UniProt P0A8F8 527-673)
T3 construct: UvrB, E. coli, residues 527-673 (domain 4); also called UvrB domain 4; source: bacterial two-hybrid fusion, pRA03 derivative, in E. coli KS1; not shown: λ cI residues 1–236, N-terminal, kept
T3 sequence (looked up): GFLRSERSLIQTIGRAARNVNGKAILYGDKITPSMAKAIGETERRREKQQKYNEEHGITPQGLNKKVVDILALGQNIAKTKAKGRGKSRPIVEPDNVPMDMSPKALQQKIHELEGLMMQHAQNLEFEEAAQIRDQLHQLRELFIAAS

T4: UvrD (helicase II), native untagged (E. coli, UniProt P03018 1-720)
T4 construct: UvrD (helicase II), E. coli MG1655, whole coding region from start to stop codon (720 residues); also called full-length UvrD; wild-type UvrD; source: E. coli BL21(DE3), pETDUET-UvrD, purified (heparin, MonoQ)
T4 sequence (looked up): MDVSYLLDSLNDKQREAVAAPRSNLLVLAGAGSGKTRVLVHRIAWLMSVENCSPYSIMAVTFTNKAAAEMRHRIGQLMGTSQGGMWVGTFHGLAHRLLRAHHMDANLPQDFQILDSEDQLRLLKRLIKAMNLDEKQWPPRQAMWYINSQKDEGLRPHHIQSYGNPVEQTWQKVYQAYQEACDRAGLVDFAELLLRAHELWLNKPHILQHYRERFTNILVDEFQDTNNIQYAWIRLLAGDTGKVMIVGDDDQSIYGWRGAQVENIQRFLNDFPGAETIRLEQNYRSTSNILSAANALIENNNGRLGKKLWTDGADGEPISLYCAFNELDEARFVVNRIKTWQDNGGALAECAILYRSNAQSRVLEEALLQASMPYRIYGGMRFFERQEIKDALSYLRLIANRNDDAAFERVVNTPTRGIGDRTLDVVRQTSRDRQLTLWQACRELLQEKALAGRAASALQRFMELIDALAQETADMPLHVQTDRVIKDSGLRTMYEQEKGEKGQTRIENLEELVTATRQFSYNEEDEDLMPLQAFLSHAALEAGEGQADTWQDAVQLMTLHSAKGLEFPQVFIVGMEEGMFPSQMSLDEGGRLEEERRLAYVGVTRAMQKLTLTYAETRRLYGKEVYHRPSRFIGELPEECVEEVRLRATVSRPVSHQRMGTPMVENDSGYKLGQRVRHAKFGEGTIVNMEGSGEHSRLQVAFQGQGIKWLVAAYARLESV

T5: ^bioUvrD, full-length UvrD biotinylated at the N-terminus (E. coli, UniProt P03018 1-720, biotin on the lysine of the N-terminal tag … (biotinylated in vivo by BirA))
T5 construct: UvrD (helicase II), E. coli MG1655, whole coding region (720 residues); The tag was inserted at the NcoI site that overlaps the start codon of uvrD; also called biotinylated UvrD; source: E. coli BL21(DE3) with pBirACm and pET28a-^bioUvrD, purified (ammonium sulphate, Softlink Avidin, HiTrap heparin)
T5 sequence (looked up): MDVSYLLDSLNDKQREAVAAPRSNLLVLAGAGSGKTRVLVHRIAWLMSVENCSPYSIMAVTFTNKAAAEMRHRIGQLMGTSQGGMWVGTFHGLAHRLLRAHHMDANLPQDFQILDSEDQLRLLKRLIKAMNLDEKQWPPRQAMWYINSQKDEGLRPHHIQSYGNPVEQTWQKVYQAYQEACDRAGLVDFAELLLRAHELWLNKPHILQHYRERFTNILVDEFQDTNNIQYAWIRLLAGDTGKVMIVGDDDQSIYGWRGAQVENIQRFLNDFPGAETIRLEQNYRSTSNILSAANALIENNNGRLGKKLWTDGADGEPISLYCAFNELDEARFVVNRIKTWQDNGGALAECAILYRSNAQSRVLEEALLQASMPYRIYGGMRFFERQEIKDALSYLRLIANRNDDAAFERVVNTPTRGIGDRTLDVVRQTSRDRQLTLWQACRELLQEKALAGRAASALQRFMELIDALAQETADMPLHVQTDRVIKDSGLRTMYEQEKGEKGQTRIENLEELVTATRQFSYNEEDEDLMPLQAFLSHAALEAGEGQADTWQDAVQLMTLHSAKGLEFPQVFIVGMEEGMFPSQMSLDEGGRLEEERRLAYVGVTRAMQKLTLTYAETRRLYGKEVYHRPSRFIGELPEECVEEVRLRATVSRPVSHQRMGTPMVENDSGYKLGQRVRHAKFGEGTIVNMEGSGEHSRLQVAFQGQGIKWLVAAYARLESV


Key:
[1] = test system: UvrD1-647 (Escherichia coli MG1655); assay: DNA-dependent ATPase, poly(dT) titration (KDNA, half-maximal activity); settings: NER complex: 40 mM HEPES pH 8.0, 100 mM KCl, 8 mM MgCl2, 5 mM DTT, 100 ug/ml BSA, 11% glycerol, 2 mM ATP with regeneration system, 37 C; ATPase assay …
[2] = test system: UvrD (helicase II) (Escherichia coli MG1655); assay: as above; settings: NER complex: 40 mM HEPES pH 8.0, 100 mM KCl, 8 mM MgCl2, 5 mM DTT, 100 ug/ml BSA, 11% glycerol, 2 mM ATP with regeneration system, 37 C; ATPase assay …
[3] = target: T1, λ cI-UvrB 35–252 (1a2) fusion protein; assay: two-hybrid; bacterial 2-hybrid (Dove and Hochschild) in E. coli KS1: UvrD fragments fused to RNA polymerase α 1–248, UvrB fragments fused to λ cI 1–236; chromosomal lacZ reporter, β-galactosidase in Miller Units; LB with 1 mM IPTG, 30 °C, mid-log phase; settings: partners not purified
[4] = target: T2, λ cI-UvrB 251–547 (1b3) fusion protein; assay: as above; settings: partners not purified
[5] = target: T3, λ cI-UvrB 527–673 (4) fusion protein; assay: as above; settings: partners not purified
[6] = target: T4, UvrD (helicase II), native untagged; assay: SPR; BIAcore 2000; UvrB or UvrB_(1–414) immobilised on CM5 chip by amine coupling (~8000 RU); UvrD or UvrD_(1–647) injected at 0.05-4.0 μM, 20 μl/min, 25 °C; 10 mM HEPES pH 7.4, 150 mM NaCl, 3 mM EDTA, 0.005% Tween20; settings: both partners purified
[7] = target: T5, ^bioUvrD, full-length UvrD biotinylated …; assay: SPR; BIAcore 2000; ^bioUvrD or ^bioUvrD_(1–647) immobilised on streptavidin (SA) chip (~7000 RU); UvrB or UvrB_(1–414) injected at 0.05-4.0 μM, 20 μl/min, 25 °C; 10 mM HEPES pH 7.4, 150 mM NaCl, 3 mM EDTA, 0.005% Tween20; settings: both partners purified

Row | β-galactosidase activity [3] | binding result [6] | binding result [7] | Molecule | other results
1 | 140 Miller Units | – | – | α-UvrD 645–720 (C-extension) fusion protein (domain or fragment, E. coli, UniProt P03018 645-720, looked up, UvrD (helicase II), E. coli, residues 645-720 (unstructured C-terminal extension); also called C-terminal extension of UvrD (residues 645–720); source: bacterial two-hybrid fusion, pRA02 derivative, in E. coli KS1; not shown: RNA polymerase α subunit residues 1–248, N-terminal, kept) RLRATVSRPVSHQRMGTPMVENDSGYKLGQRVRHAKFGEGTIVNMEGSGEHSRLQVAFQGQGIKWLVAAYARLESV | –
2 | 111 Miller Units | – | – | α-UvrD 1–280 (1a1b1a) fusion protein (domain or fragment, E. coli, UniProt P03018 1-280, looked up, UvrD (helicase II), E. coli, residues 1-280 (domains 1a and 1b); also called N-terminal fragment of UvrD; UvrD domains 1a and 1b; source: bacterial two-hybrid fusion, pRA02 derivative, in E. coli KS1; not shown: RNA polymerase α subunit residues 1–248, N-terminal, kept) MDVSYLLDSLNDKQREAVAAPRSNLLVLAGAGSGKTRVLVHRIAWLMSVENCSPYSIMAVTFTNKAAAEMRHRIGQLMGTSQGGMWVGTFHGLAHRLLRAHHMDANLPQDFQILDSEDQLRLLKRLIKAMNLDEKQWPPRQAMWYINSQKDEGLRPHHIQSYGNPVEQTWQKVYQAYQEACDRAGLVDFAELLLRAHELWLNKPHILQHYRERFTNILVDEFQDTNNIQYAWIRLLAGDTGKVMIVGDDDQSIYGWRGAQVENIQRFLNDFPGAETIRLE | β-galactosidase activity [4]: 336 Miller Units; β-galactosidase activity [5]: 86 Miller Units

Second part, the molecule before the results:

Row | Molecule | β-galactosidase activity [3] | binding result [6] | binding result [7] | other results
3 | poly(dT) | – | – | – | K half (uM nucleotides) [1]: 2.5; K half (uM nucleotides) [2]: 0.54
4 | UvrB, N-terminally hexa-His-tagged (natural protein, E. coli, UniProt P0A8F8 1-673, looked up, UvrB, E. coli MG1655, whole coding region from start to stop codon (673 residues); also called full-length UvrB; source: E. coli XL1-Blue, pQE30UvrB, purified (Ni HiTrap chelating column)) MSKPFKLNSAFKPSGDQPEAIRRLEEGLEDGLAHQTLLGVTGSGKTFTIANVIADLQRPTMVLAPNKTLAAQLYGEMKEFFPENAVEYFVSYYDYYQPEAYVPSSDTFIEKDASVNEHIEQMRLSATKAMLERRDVVVVASVSAIYGLGDPDLYLKMMLHLTVGMIIDQRAILRRLAELQYARNDQAFQRGTFRVRGEVIDIFPAESDDIALRVELFDEEVERLSLFDPLTGQIVSTIPRFTIYPKTHYVTPRERIVQAMEEIKEELAARRKVLLENNKLLEEQRLTQRTQFDLEMMNELGYCSGIENYSRFLSGRGPGEPPPTLFDYLPADGLLVVDESHVTIPQIGGMYRGDRARKETLVEYGFRLPSALDNRPLKFEEFEALAPQTIYVSATPGNYELEKSGGDVVDQVVRPTGLLDPIIEVRPVATQVDDLLSEIRQRAAINERVLVTTLTKRMAEDLTEYLEEHGERVRYLHSDIDTVERMEIIRDLRLGEFDVLVGINLLREGLDMPEVSLVAILDADKEGFLRSERSLIQTIGRAARNVNGKAILYGDKITPSMAKAIGETERRREKQQKYNEEHGITPQGLNKKVVDILALGQNIAKTKAKGRGKSRPIVEPDNVPMDMSPKALQQKIHELEGLMMQHAQNLEFEEAAQIRDQLHQLRELFIAAS | – | binds | binds | –
5 | UvrB_(1–414), N-terminally His-tagged (domain or fragment, E. coli, UniProt P0A8F8 1-414, looked up, also called truncated derivative of UvrB comprising domains 1a, 2 and 1b) MSKPFKLNSAFKPSGDQPEAIRRLEEGLEDGLAHQTLLGVTGSGKTFTIANVIADLQRPTMVLAPNKTLAAQLYGEMKEFFPENAVEYFVSYYDYYQPEAYVPSSDTFIEKDASVNEHIEQMRLSATKAMLERRDVVVVASVSAIYGLGDPDLYLKMMLHLTVGMIIDQRAILRRLAELQYARNDQAFQRGTFRVRGEVIDIFPAESDDIALRVELFDEEVERLSLFDPLTGQIVSTIPRFTIYPKTHYVTPRERIVQAMEEIKEELAARRKVLLENNKLLEEQRLTQRTQFDLEMMNELGYCSGIENYSRFLSGRGPGEPPPTLFDYLPADGLLVVDESHVTIPQIGGMYRGDRARKETLVEYGFRLPSALDNRPLKFEEFEALAPQTIYVSATPGNYELEKSGGDVVDQVVR | – | binds | binds | –
